Data reported in paper PMC10183829 (2023).
No end group written: not given here. TAMRA = 5(6)-carboxytetramethylrhodamine

B1: peptide derived from the cAIM of the AtC53 IDR (peptide)
chain: {TAMRA}-DLGSYEIVNASDI
B2: peptide derived from sAIM2 (AtC53 IDR) (peptide)
chain: {TAMRA}-ETPEIDWDVSMVEEV
B3: UBA5 LIR (peptide)
chain: GPLHDDNEWNISVVDD
B4: ATG8A (purified) (natural protein)
chain: MAKSSFKISNPLEARMSESSRIREKYPDRIPVIVEKAGQSDVPDIDKKKYLVPADLTVGQFVYVVRKRIKLGAEKAIFVFVKNTLPPTAALMSAIYEEHKDEDGFLYMTYSGENTFG
B5: HsC53 wt (purified) (natural protein)
chain: MEDHQHVPIDIQTSKLLDWLVDRRHCSLKWQSLVLTIREKINAAIQDMPESEEIAQLLSGSYIHYFHCLRILDLLKGTEASTKNIFGRYSSQRMKDWQEIIALYEKDNTYLVELSSLLVRNVNYEIPSLKKQIAKCQQLQQEYSRKEEECQAGAAEMREQFYHSCKQYGITGENVRGELLALVKDLPSQLAEIGAAAQQSLGEAIDVYQASVGFVCESPTEQVLPMLRFVQKRGNSTVYEWRTGTEPSVVERPHLEELPEQVAEDAIDWGDFGVEAVSEGTDSGISAEAAGIDWGIFPESDSKDPGGDGIDWGDDAVALQITVLEAGTQAPEGVARGPDALTLLEYTETRNQFLDELMELEIFLAQRAVELSEEADVLSVSQFQLAPAILQGQTKEKMVTMVSVLEDLIGKLTSLQLQHLFMILASPRYVDRVTEFLQQKLKQSQLLALKKELMVQKQQEALEEQAALEPKLDLLLEKTKELQKLIEADISKRYSGRPVNLMGTSL
B6: peptide derived from sAIM1 (AtC53 IDR) (peptide)
chain: {TAMRA}-AADSIDWDITVET

Legend:
[1] = target: B4; test: FP
[2] = target: HsUFM1 (purified) (human, UniProt P61960 1-85); test: ITC
[3] = target: cAIM mut; test: FP
[4] = target: sAIM3; test: FP
[5] = target: GABARAP (purified) (human, UniProt O95166 3-116); test: ITC
GABARAP (purified), sequence (O95166 3-116): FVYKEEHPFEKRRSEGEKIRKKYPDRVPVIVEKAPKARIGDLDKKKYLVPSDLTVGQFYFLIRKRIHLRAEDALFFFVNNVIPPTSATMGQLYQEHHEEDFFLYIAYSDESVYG

HsUFM1 (purified), sequence (P61960 whole entry): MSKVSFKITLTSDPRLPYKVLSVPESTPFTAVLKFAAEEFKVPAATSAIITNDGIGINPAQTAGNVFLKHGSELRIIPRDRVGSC

Binder: B1
- Kd [1]: 62.5 µM

Binder: B2
- Kd [1]: 56.8 µM

Binder: B3
- Kd [2]: 7.51 µM

Binder: B4
- Kd [3]: 94.3 µM
- Kd [4]: 176 µM

Binder: B5
- Kd [5]: 20.9 µM

Binder: B6
- Kd [1]: 97.6 µM
